According to patent US9730926B2, “Combination therapy using bispecific anti-c-Met/anti-EGFR antibody and c-Src inhibitor” (Samsung Electronics Co., Ltd., priority 2014, dated 2017):

Assays:
[1] = test system: EGFR T790M mutated non-small cell lung cancer cell line (H1975); conditions: FIGS. 17 to 19; for cell proliferation, co-treatment with bispecific antibody compared to c-Src inhibitor alone: c-Src inhibitor 10, 100, 1000 nM + 5 μg/ml ME22S, HGF and EGF 100 ng/ml, 72 hours; for dose dependence of the synergistic effect by co-treatment with bispecific antibody: c-Src inhibitor concentration varied, ME22S 5 μg/ml
Protocol: (§1) The cells were stored in RPMI1640 medium (GIBCO) containing 10%(v/v) FBS under the conditions of 5% CO2 and 37° C., until being used in the following experiments. A cell proliferation assay was performed as follows.
(§2) In detail, RPMI1640 medium (GIBCO) containing 10% FBS was added to 96-well plate.
(§3) At 72 hours after the treatment, 10 μL of Cell Counting Kit-8 solution (Dojindo Molecular Technologies, Gaithersburg, Md.) was added to each well, and left at room temperature for 2 hours.

[2] = test system: K-Ras mutated colorectal cancer cell line (HCT-116 cell line); assay: Cell proliferation assay (Cell Counting Kit-8), HCT-116 cell line; format: cell-based; conditions: for cell proliferation, co-treatment with ME22S compared to c-Src inhibitor alone: dasatinib 10-1000 nM or saracatinib 10-10000 nM + 5 μg/ml ME22S
Protocol: as §1
RPMI1640 medium (GIBCO) containing 10% FBS was added to 96-well plate.
as §3, §2

[3] = test system: K-Ras mutated colorectal cancer cell line (Lovo cell line); assay: Cell proliferation assay (Cell Counting Kit-8), Lovo cell line; format: cell-based; conditions: for cell proliferation, co-treatment with ME22S compared to c-Src inhibitor alone: c-Src inhibitor 10, 100, 1000 nM + 5 μg/ml ME22S
[4] = test system: K-Ras mutated colorectal cancer cell line (Lovo cell line); assay: as above; format: cell-based; conditions: FIG. 4, FIG. 5
Protocol: To examine the cell proliferation inhibition effect depending on the amount of a bispecific anti-c-Met/anti-EGFR antibody, the experiment was carried out by varying the amount of the treated bispecific anti-c-Met/anti-EGFR antibody with fixing the amount of dasatini as 30 nM.
This experiment was conducted referring to the experiment of the cell proliferation test depending on the amount of the antibody as described above, except the amount of the treated antibody and the c-Src inhibitor.

[5] = test system: EGFR T790M mutated non-small cell lung cancer cell line (H820 cell line); assay: Cell proliferation assay (Cell Counting Kit-8), H820 cell line; format: cell-based
From the text: The H820 cell line was obtained from ATCC. The H820 cells comprise EGFR T790M mutation.

[6] = 5 μg/ml alone, HGF and EGF 100 ng/ml, 72 hours

COc1cc(Nc2c(C#N)cnc3cc(OCCCN4CCN(C)CC4)c(OC)cc23)c(Cl)cc1Cl [bosutinib, 4-[(2,4-dichloro-5-methoxyphenyl)amino]-6-methoxy-7-[3-(4-methylpiperazin-1-yl)propoxy]quinoline-3-carbonitrile]
cell proliferation, co-treatment with bispecific antibody compared to c-Src inhibitor alone [1]: significantly synergistic therapeutic effect
dose dependence of the synergistic effect by co-treatment with bispecific antibody [1]: generally dose-dependent for the c-Src inhibitor

CN1CCN(CCOc2cc(OC3CCOCC3)c3c(Nc4c(Cl)ccc5c4OCO5)ncnc3c2)CC1 [saracatinib, 4-Quinazolinamine, N-(5-Chloro-1,3-benzodioxol-4-yl)-7-[2-(4-methyl-1-piperazinyl)ethoxy]-5-[(tetrahydro-2H-pyran-4-yl)oxy]-4-quinazolinamine]
dose dependence of the synergistic effect by co-treatment with ME22S ([2]; c-Src inhibitor concentration varied, ME22S 5 μg/ml, FIG. 14, FIG. 15): generally dose-dependent for the c-Src inhibitor
cell proliferation, co-treatment with ME22S compared to c-Src inhibitor alone ([2]; 72 hours, FIG. 14, FIG. 15): significantly synergistic therapeutic effect
cell proliferation, co-treatment with bispecific antibody compared to c-Src inhibitor alone [1]: significantly synergistic therapeutic effect
dose dependence of the synergistic effect by co-treatment with bispecific antibody [1]: generally dose-dependent for the c-Src inhibitor
cell proliferation, co-treatment with ME22S compared to c-Src inhibitor alone ([3]; 72 hours, FIG. 6, FIG. 7): more synergistic therapeutic effect
dose dependence of the synergistic effect by co-treatment with ME22S ([3]; c-Src inhibitor concentration varied, ME22S fixed at 5 μg/ml, FIG. 6, FIG. 7): generally dose-dependent for the c-Src inhibitor

Cc1nc(Nc2ncc(C(=O)Nc3c(C)cccc3Cl)s2)cc(N2CCN(CCO)CC2)n1 [dasatinib, N-(2-chloro-6-methylphenyl)-2-[[6-[4-(2-hydroxyethyl)-1-piperazinyl]-2-methyl-4-pyrimidinyl]amino]-5-thiazole carboxamide monohydrate, reference compound]
cell proliferation, co-treatment with ME22S compared to c-Src inhibitor alone ([2]; 72 hours, FIG. 14, FIG. 15): significantly synergistic therapeutic effect
cell proliferation, co-treatment with ME22S compared to c-Src inhibitor alone ([3]; 72 hours, FIG. 6, FIG. 7): more synergistic therapeutic effect

B1: ME-19: bispecific anti-c-Met/anti-EGFR antibody: anti-EGFR DARPin fused to C-terminus of L3-1Y heavy chain through (G4S)2 linker (antibody)
heavy: EVQLVESGGGLVQPGGSLRLSCAASGFTFTDYYMSWVRQAPGKGLEWLGFIRNKANGYTTEYSASVKGRFTISRDNSKNTLYLQMNSLRAEDTAVYYCARDNWFAYWGQGTLVTVSSASTKGPSVFPLAPCSRSTSESTAALGCLVKDYFPEPVTVSWNSGALTSGVHTFPAVLQSSGLYSLSSVVTVPSSNFGTQTYTCNVDHKPSNTKVDKTVERKCCVECPPCPAPPVAGPSVFLFPPKPKDTLMISRTPEVTCVVVDVSHEDPEVQFNWYVDGVEVHNAKTKPREEQFNSTFRVVSVLTVVHQDWLNGKEYKCKVSNKGLPAPIEKTISKTKGQPREPQVYTLPPSREEMTKNQVSLTCLVKGFYPSDIAVEWESNGQPENNYKTTPPMLDSDGSFFLYSKLTVDKSRWQQGNVFSCSVMHEALHNHYTQKSLSLSPGKGGGGSGGGGSDLGKKLLEAARAGQDDEVRILMANGADVNADDTWGWTPLHLAAYQGHLEIVEVLLKNGADVNAYDYIGWTPLHLAADGHLEIVEVLLKNGADVNASDYIGDTPLHLAAHNGHLEIVEVLLKHGADVNAQDKFGKTAFDISIDNGNEDLAEILQ
light: DIQMTQSPSSLSASVGDRVTITCKSSQSLLASGNQNNYLAWYQQKPGKAPKMLIIWASTRVSGVPSRFSGSGSGTDFTLTISSLQPEDFATYYCQQSYSRPYTFGQGTKVEIKRTVAAPSVFIFPPSDEQLKSGTASVVCLLNNFYPREAKVQWKVDNALQSGNSQESVTEQDSKDSTYSLSSTLTLSKADYEKHKVYACEVTHQGLSSPVTKSFNRGEC
cell proliferation, co-treatment with dasatinib compared to bispecific antibody alone ([4]; ME-19 10, 1, 0.1, 0.01 μg/ml or ME22S 1, 0.1, 0.01 μg/ml + 30 nM dasatinib, 72 hours): more synergistic therapeutic effect
dose dependence of the synergistic effect by co-treatment with dasatinib ([4]; antibody concentration varied, dasatinib fixed at 30 nM): dose-dependent for the antibody
cell proliferation, co-treatment with c-Src inhibitor compared to either alone ([5]; ME19 0.01, 0.1, 1 or 10 μg/ml + dasatinib 30 nM, 72 hours, FIG. 10): more considerable inhibition effect on the cell proliferation
dose dependence of the inhibition effect on cell proliferation ([5]; ME19 concentration varied, dasatinib 30 nM, FIG. 10): generally dose-dependent for the bispecific anti-c-Met/anti-EGFR antibody
cell proliferation, bispecific antibody + dasatinib compared to co-treatment of dasatinib, L3-1Y and erbitux ([2]; 5 μg/ml ME19 + 5 nM dasatinib, 72 hours, FIG. 13): considerable inhibition effect on cancer cell proliferation
cell proliferation, co-treatment with dasatinib compared to each of the drugs ([2]; 5 μg/ml ME19 + 5 nM dasatinib, HGF and EGF 100 ng/ml, 72 hours, FIG. 13): more considerable cell proliferation inhibition effect
cell proliferation, bispecific antibody + dasatinib compared to co-treatment of dasatinib, L3-1Y and erbitux ([3]; 5 μg/ml antibody + 30 nM dasatinib, 72 hours): considerable inhibition effect on cancer cell proliferation
cell proliferation, combination with dasatinib compared to the drugs alone ([3]; 5 μg/ml antibody + 30 nM dasatinib, HGF and EGF 100 ng/ml, 72 hours, FIG. 2, FIG. 3): considerable inhibitory effect on the cell proliferation

B2: L3-1Y: anti-c-Met antibody: huAbF46-H4-A1 variable regions, human IgG2 hinge and constant region, human kappa light chain (antibody)
heavy: EVQLVESGGGLVQPGGSLRLSCAASGFTFTDYYMSWVRQAPGKGLEWLGFIRNKANGYTTEYSASVKGRFTISRDNSKNTLYLQMNSLRAEDTAVYYCARDNWFAYWGQGTLVTVSSASTKGPSVFPLAPCSRSTSESTAALGCLVKDYFPEPVTVSWNSGALTSGVHTFPAVLQSSGLYSLSSVVTVPSSNFGTQTYTCNVDHKPSNTKVDKTVERKCCVECPPCPAPPVAGPSVFLFPPKPKDTLMISRTPEVTCVVVDVSHEDPEVQFNWYVDGVEVHNAKTKPREEQFNSTFRVVSVLTVVHQDWLNGKEYKCKVSNKGLPAPIEKTISKTKGQPREPQVYTLPPSREEMTKNQVSLTCLVKGFYPSDIAVEWESNGQPENNYKTTPPMLDSDGSFFLYSKLTVDKSRWQQGNVFSCSVMHEALHNHYTQKSLSLSPGK
light: DIQMTQSPSSLSASVGDRVTITCKSSQSLLASGNQNNYLAWYQQKPGKAPKMLIIWASTRVSGVPSRFSGSGSGTDFTLTISSLQPEDFATYYCQQSYSRPYTFGQGTKVEIKRTVAAPSVFIFPPSDEQLKSGTASVVCLLNNFYPREAKVQWKVDNALQSGNSQESVTEQDSKDSTYSLSSTLTLSKADYEKHKVYACEVTHQGLSSPVTKSFNRGEC
cell proliferation, L3-1Y in combination with erbitux ([5]; 5 μg/ml L3-1Y + 5 μg/ml erbitux, 72 hours): increased cell proliferation
cell proliferation, antibody alone [5, 6]: increased cell proliferation
cell proliferation, L3-1Y in combination with erbitux ([3]; 5 μg/ml L3-1Y + 5 μg/ml erbitux, HGF and EGF 100 ng/ml, 72 hours): increased cell proliferation
cell proliferation, antibody alone [3, 6]: increased cell proliferation
